This note sets out measurements from PMC4663267, “A Novel C-Terminal Domain of RecJ is Critical for Interaction with HerA in Deinococcus radiodurans”.

One data set deals with T1, DrRecJ;DrHerAΔN (Deinococcus radiodurans;Deinococcus …, UniProt D0EM60;Q9RW32 1-705;136-618, |).
T1 sequence 1: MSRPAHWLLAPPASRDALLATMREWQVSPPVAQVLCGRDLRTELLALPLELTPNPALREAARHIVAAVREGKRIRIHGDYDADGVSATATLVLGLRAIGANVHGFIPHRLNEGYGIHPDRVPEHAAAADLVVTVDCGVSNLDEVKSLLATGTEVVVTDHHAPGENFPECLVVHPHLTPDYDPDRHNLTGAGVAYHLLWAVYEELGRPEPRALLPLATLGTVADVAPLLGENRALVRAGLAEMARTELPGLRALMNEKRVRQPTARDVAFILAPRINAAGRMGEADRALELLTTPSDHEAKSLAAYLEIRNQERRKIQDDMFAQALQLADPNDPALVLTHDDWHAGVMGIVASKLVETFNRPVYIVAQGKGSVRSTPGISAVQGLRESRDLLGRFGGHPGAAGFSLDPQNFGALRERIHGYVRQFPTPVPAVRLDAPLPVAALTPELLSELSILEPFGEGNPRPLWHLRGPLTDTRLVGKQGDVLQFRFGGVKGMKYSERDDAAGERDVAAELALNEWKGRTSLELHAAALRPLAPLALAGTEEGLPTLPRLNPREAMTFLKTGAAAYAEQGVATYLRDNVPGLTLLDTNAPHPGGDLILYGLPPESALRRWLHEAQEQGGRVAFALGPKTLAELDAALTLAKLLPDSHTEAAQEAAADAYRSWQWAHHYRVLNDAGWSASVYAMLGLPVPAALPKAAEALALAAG
T1 sequence 2: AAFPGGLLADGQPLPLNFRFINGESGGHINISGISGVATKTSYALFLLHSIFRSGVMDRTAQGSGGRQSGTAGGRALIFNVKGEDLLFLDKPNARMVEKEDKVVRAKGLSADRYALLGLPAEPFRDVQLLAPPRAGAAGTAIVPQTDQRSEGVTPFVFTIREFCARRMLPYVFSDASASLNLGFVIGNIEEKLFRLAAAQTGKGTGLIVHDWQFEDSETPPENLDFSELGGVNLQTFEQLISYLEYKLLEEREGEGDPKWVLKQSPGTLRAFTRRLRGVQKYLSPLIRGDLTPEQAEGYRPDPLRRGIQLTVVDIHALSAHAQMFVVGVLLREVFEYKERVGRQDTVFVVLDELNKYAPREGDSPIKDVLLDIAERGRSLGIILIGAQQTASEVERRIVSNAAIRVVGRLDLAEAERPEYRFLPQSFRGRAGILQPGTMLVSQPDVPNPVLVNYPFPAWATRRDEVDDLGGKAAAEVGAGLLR
The data set is described as follows: EMSA; with 4 uM DrNurA (dimer, P6), 800 nM HerAΔN hexamer; stimulation not decreased; EMSA: 100 nM DNA, 80 mM NaCl, 20 mM Tris-HCl pH 7.5, 1 mM DTT, 30 C, 10 min, 5% TBE native PAGE. Conditions: protein: recombinant;recombinant; tags: HMT (His6-MBP) tag removed by TEV;N-terminal His6; copies: 1;6; label: 5' FAM; single strand. A general note: Mobility shift assays separate free from complexed probe on a gel.

A further data set deals with T2, DrRecJ;DrHerA (Deinococcus radiodurans;Deinococcus …, UniProt D0EM60;Q9RW32 1-705;1-618, |).
T2 sequence 1: T1 sequence 1
T2 sequence 2: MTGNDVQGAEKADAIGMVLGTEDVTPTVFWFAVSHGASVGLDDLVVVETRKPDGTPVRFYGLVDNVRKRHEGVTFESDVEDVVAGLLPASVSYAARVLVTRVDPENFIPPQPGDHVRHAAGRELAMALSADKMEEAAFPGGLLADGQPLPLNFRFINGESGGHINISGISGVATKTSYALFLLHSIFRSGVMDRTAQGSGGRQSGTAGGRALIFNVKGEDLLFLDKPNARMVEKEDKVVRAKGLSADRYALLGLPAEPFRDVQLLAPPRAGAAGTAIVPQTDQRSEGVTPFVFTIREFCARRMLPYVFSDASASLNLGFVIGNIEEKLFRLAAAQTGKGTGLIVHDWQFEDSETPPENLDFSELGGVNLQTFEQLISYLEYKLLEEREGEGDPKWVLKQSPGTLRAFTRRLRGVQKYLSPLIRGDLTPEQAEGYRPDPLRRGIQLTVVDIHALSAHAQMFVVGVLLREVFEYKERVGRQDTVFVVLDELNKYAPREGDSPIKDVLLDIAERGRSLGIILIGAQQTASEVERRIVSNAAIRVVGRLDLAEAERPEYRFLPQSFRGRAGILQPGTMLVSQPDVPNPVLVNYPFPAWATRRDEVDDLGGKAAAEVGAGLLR
The experiment in a line: EMSA; HerA hexamer:RecJ 8:1; super-shift, RecJ binding enhanced; EMSA: 100 nM DNA, 80 mM NaCl, 20 mM Tris-HCl pH 7.5, 1 mM DTT, 30 C, 10 min, 5% TBE native PAGE. Conditions: protein: recombinant;recombinant; tags: HMT (His6-MBP) tag removed by TEV;N-terminal His6; copies: 1;6; label: 5' FAM; single strand.

B1: O1 (10 nt ssDNA) (ssDNA)
DNA: AAAAAAAAAA
Regarding B1, the binding result with DrRecJ;DrHerAΔN and with DrRecJ;DrHerA was “binds” in each case.
